Molecular target: nucleosome core particle assembled on a 149 bp long 601 DNA sequence (Xenopus laevis)
Assay: cryo-EM micrographs and 2D classification; NCPs on 149 bp 601 DNA at 150 mM NaCl; particles with a second NCP in the proximity counted by 2D classification (Relion)

- percent of particles with a second NCP in the proximity: 20%
Substance: nucleosome core particle assembled on a 149 bp long 601 DNA sequence (complex)
